Experimental data as given in the DeepSol protein solubility set.

Assay: soluble on expression in E. coli; label from the status in PepcDB or PDB records

Sequence	soluble on expression in E. coli
MAHHHHHHMEGASHEAAEHTSASAMTRKERKKIEKSEKQAEELRQLSKKANAVNGDTDNPFSVTLETDQIAEGSRNITFNKVSVSVNGKTLFKDTTVKLSAGSRYGLMGPNGRGKSTILRLLASRELPVQSNLDLLLVEQEQEFTASELSAVDAVLQSHKKQNACADEAKALGAKAELSEAEMERLHFLEEELDIMGAAQADARARRILFGLGFPTEWHERPTSSFSGGWRKRIALASAVFIEPDVLMLDEPTNHLDLNAVIWLESYLTKAYSEMARRPKTLIVVSHDAGFLDEVCTHMVHVENYMLNYYRGSYSSFDEQLQQRHQELDKKYESVAKTIRDKKRNGMSNAQVEVWIKDQVNSGRLDPLFLEKRRDYTVNFPFPDPPELRDGCVCKLDSVSFNYPGGPVLFQNVSCALWTDSRITLCGPNGIGKSTLLNLMTGVLEPTAGYITLNRQVRIGRYNQHFVDKLPLEKTPVECIQALGIPEEDKARRLLGSFGLEGIVHKNQIATLSGGQKARVAFAAISAESPHFLLFDEPTNHLDVESIDALCTAIRNFKGGVLVVTHDARLIESTEMQIWVAGDKNVMPFNGSLDDYKNVVRAEFEKEEAMRLEERKQLLEHKTEARQLKQSGVADVTTALQEKKEKKQHEHAQGLDAFLTAAAKKKKPKKAKEES	soluble
DQEVRLENRITFQLELVGLERVVRISAKPTKRLQEALQPILAKHGLSLDQVVLHRPGEKQPMDLENPVSSVASQTLVLDTPPDAKMSEARS	soluble
MILLPLHCGHVPCFPPLELPVTHVAVIGAGFSGLAAALRLAQAGAQVTVLDALDRPGGKAALGYDDFSSGPTVVTMPQIFAALHARLGWDAPALTPAHPTTTYHALSGRTFAPEALNVVGSLDPTMTQLSRAEGRRYRQLLFAARQMYSGAADTFLFAPPPTRTQLAQYALRAGRQAAPLTPLARYVRSGPFLTPFWLRFATYLGADPYRAPAVLHNIAWVELGDGIWHLPGGLLALAERLYAEALDRGVRFEFGIQVQHLSTHGGRVLGAHTSRGAFAADRWVSAADRALTLGWLGQDTPTTPRGVSGFALQLRLGEDLGQGHHIFWPADYAREWQDIRAGRLPSEPTLYLHLDGPRAFLLVNAPPDPRLGLSPERKADYARHLLQRLQSRFPLPVVEWQALAPADYARTGLGGALYGRAPHGLLGSLRPGWRLPQARNLVQVGGTVHPGGGVPLSLLSGWNGAGSLLGLDYDSLDGEKAFGKPAPAIKLEHHHHHH	not soluble
VTDMNPDIEKDQTSDEVTVETTSVFRADFLSELDAPAQAGTESAVSGVEGLPPGSALLVVKRGPNAGSRFLLDQAITSAGRHPDSDIFLDDVTVSRRHAEFRLENNEFNVVDVGSLNGTYVNREPVDSAVLANGDEVQIGKFRLVFLTGPKQGEDDGSTGGP	soluble
AIAKLTDSVLRSFRVAKVFRENSDKINCFDFSSNGETVISSSDDDSIVLYDCQEGKPKRTLYSKKYGVDLIRYTHAANTVVYSSNKIDDTIRYLSLHDNKYIRYFPGHNKRVVALSMSPVDDTFISGSLDKTIRLWDLRSPNCQGLMHLQGKPVCSFDPEGLIFAAGVNSEMVKLYDLRSFDKGPFATFKLQYERTCEWTGLKFSNDGKLILVSTNGGTLRVLDAFKGAVLHSFGGYNNSKGVILEAPFTPDSQFIMIGSEDGKIHVWNAESGMKVALLDGKHTGPVTCLQFNPKFMTFASACSNMAFWLPTIDD	soluble
MNDEEKPCIENILSAAEELEKLGYEPVIIADASLRHEIDDKEQFRKLLEEGKFQQVPSGTSADHFILKMAEEEDAKILSNDVFRDYKDEFQDINSRRIPYTFREDKILIGTSGKPKKVKNILQKICNEALEHHHHHH	not soluble
MGSDKIHHHHHHMAANRFNGFTDYGIGIGLRIPHYRHILDNKPVVDWFEIISENYMIDGGRPLAVLDAILEQYRVVQHGVSMYFGSVDPLNREHLKRLKNLTRRTKTPWLTDHLCWGSVDGRYTHDLMPLPYTWEAIDVTVAKIKQVRDYLEIPVAVENVSSYAEFHESEMTEWEFLNEVVERADCGILLDVNNIYVSSMNHSFDPHVYVDSVPAERVAQIHIAGHSKYEKYILDTHDHPVIDPVWQLYAHAIRRCGPTATLLEWDDHIPSFEEVHNEALKAKKFLAENAEPVEKKIAAAEARV	not soluble
FRRTGIRRIIIGQDQILFESSDNTVQIFPLNTLKSVDLYSTYDEMIELKAHRQPKITLSKSWIKRKDYRFIVSYLRERSATSGYKYTDYR	not soluble
MPTLTARSVIPPYMLRRIIEHGSLPQRDCALHTLNHVQSLLGNKPLRAPGAKTSTGGEVIRDIYDAENSTQLPGKQVRNEGQASNHDVAVDEAYDYLGVTYDFFWQAFKRNSLDNQGLPLTGSVHYGKEYQNAFWNGQQMVFGDGDGEIFNRFTIAIDVVGHALAHGVTESEAGLIYFQQAGALNESLSDVFGSLVKQFHLKQTADKADWLIGEGLLAKGINGKGLRSMSAPGTAYDDPLLGKDPQPASMKDYIQTKEDNGGVHLNSGIPNRAFYLAATALGGYAWEKAGYIWYDTLCDKALPQDADFATFARTTVKHAEQRFDSKVAQKVQQAWHQVGVA	soluble
DIQMTQSPSSLSASVGDRVTITCRSSQSLVHNNANTYLHWYQQKPGKAPKLLIYKVSNRFSGVPSRFSGSGSGTDFTLTISSLQPEDFATYYCSQNTLVPWTFGQGTKVEIKRTVAAPSVFIFPPSDEQLKSGTASVVCLLNNFYPREAKVQWKVDNALQSGNSQESVTEQDSKDSTYSLSSTLTLSKADYEKHKVYACEVTHQGLSSPVTKSFNRGEC	soluble
MLKYNIRGENIEVTEPIRDYVEKKIDKLERYFTETPDANVHVNLKVYSDKNAKVEVTIPLPNLVLRAEETSGDLYASIDLIVDKLERQIRKHKTKVNRKFRDKGAERDYFAYSDVNGSTPPEENEGDFDLEIVRTKQFSLKPMDSEEAVLQMNLLGHSFYVYTDAETNGTNIVYSRKDGKYGLIETNLEHHHHHH	soluble
AAPSFDCGKPQVEPKKCPGRVVGGCVAHPHSWPWQVSLRTRFGMHFCGGTLISPEWVLTAAHCLEKSPRPSSYKVILGAHQEVNLEPHVQEIEVSRLFLEPTRKDIALLKLSSPAVITDKVIPACLPSPNYVVADRTECFITGWGETQGTFGAGLLKEAQLPVIENKVCNRYEFLNGRVQSTELCAGHLAGGTDSCQGDSGGPLVCFEKDKYILQGVTSWGLGCARPNKPGVYVRVSRFVTWIEGVMRNN	soluble
MYPIKYVENNLVFNQEGECFAYYELVPYNYSFLSPEQKYQVHDNFRQLIAQNREGKIHALQIATESSIRATQERSKKEITGRLKEVAKQRIDLQTDALVSMIGDSQIDYRFFIGFKLIATDEEVNLKSLKKSFLSGLQEFVYGVNHHLMGDFVSLSNEEIRRYTKLEKLMESKLARRFKVRRVTPSDLTYLIEHIYGEKGTPFEEYEFQLPKKKLKSETLVKRYDLLHPSRCLIEENPRYLRMEHENHESYVAYLTINTIVGEMEFPSSELFYYQQQQFTFPIDTSMNVEIVTNKKALATVRNKKKELKDLDNHAYQSDNETNSNVLDALDSVNELETTLDQSKESMYKLSYVVRVSAESVDELKRRCDEVFDFYDDTNVKLVRPFGDMMGLHEEFLPSSKRYMNDYIQYVTSDFLAGLGFGATQKLGELEGIYFGYNVDTGRNVYLKPALASQGVKGSVTNALAAAFLGSLGGGKSFSNNLLVYYAVLFGGQAVIVDPKGERGGWKENLPEIADEINILNLTSKPENQGLLDPYVIMKKKKDSESLAIDILTFLTGISSRDGEKFPVLRKAIRTVTQSDQRGLLQVINELRKENSPVAENIADHIESFTDYDFAHLLFSDGSITQSISLDKQLNIIQVADLVLPDAETTFEEYTTMELLSVSMLIVISTFALDFIHSNREIFKIVDLDEAWSFLQVAQGKTLSNKLVRAGRAMNAGVYFVTQNSDDLLDERLKNNIGLKFAFRSTDIHEIKKTLEFFGLDQEDESNQKRLRDLENGQCLMQDLYGRVGVVQVHPVFEELFHAFDTRPPVQERME	not soluble
MGSDKIHHHHHHMKVILHIGAHRCATRSFQNYMTRKSDTLSQYGIAFMGPERTRNGLLHGIQPGAISVTGRDPMARARGRIALQLAGLQNAGTASVVISDASMLQPLEQCFALGALYPAAGEHLARLDHAFDGAVSDVMLNIRSPEMFWASALAVRLEHSLRMPNAATLSRIAEATRSWRDVIQDIYCAMPGARIRVFPYEVFATQPEAQLSAVTGVDCPHARGAFRLNASARLPELRAELPPRLAKLLPEDEGRWMPFSEAEAARLRESYYDDMMWLVGGADGLAELVEDPNKADATATPPAPDLVVQEDLTRGRMHDPDTGRLAGTG	not soluble
MAVIVKYVVERNGEEKMTFTSKAEADAYDKMLDMADELFELLGKSALIEDEAKQEELAMFLAQNKEDVLCALGAKRKPAPATGKKPKAVADSDDDESVDDAA	not soluble
MGVLQATVLWAGPIPRVGNPPNWTSPSSSGLLFFYFFFTSTSDFTMEAPPAPKKARRSEVSRMQDESVLCDDDEEDSPFTLYFVDLPNEPTVKEIRNLEELFKTAKAVGIMPEWIDSDALEDLQKSEDFFVLPCFRGKLFRKLQARKLKVYGPPIVLESIEDGKQLPQWNHPVYSSVFQDVKISFTGLNLTKKQELYEKIGWMCGVVGDALYHETTHLVTEKAEQTEKYKAAVNNSIKLMRIGWIDDLWETSQTTMGRFSALSRDSVNSYALRVFEGLEMAITSIDGADRTNFIQLIEDHGGKVPGTMSKTRFFFSVFHYKICSFLGALLSIQMMLPEKAFYRKYHPKYLTADHIRSSTPKRDANVTESVPDISSIAGHGGRLGTSSFNSSIPQMDQSYQHQSGSSFISFASTSKIPSSTFTNNDSTLGRSGSGVRDGISTPIARVQTTPLIRYPTTQTASVQNIADVISDPIDELRKNIDDGLGDLFENCMFYICGVDESRMEKWRRFLNETGATRVAKFTSATNVVVVSPNQQERITIRKHLHQEDIAIVTVGWVVECVKQRKMISVEGYQWTENTADESQSSQSQLQPVRPQPLPRTSSKSTIPYGKTSGPSSTSTQVGIFSYHTYCVHCSVDQEVSDDLKEKIPLNGGKLMDDPDYAEFVIFGHSGPMHELISFDAVVTDFYIYASIGNNRFLNRSCYPLFVPLPRPPILIFNQRGFQLKCKDPFLRDRVRDIIEDNGGRIVEQLEPKDFIIMIDAEDNPPRYHSRTLDFSWIIASVSRCRLQPIDNFLYKNNTRPLSGFQRDDDLWEKCSREKNNSTQEMEVEVEDRHRVQDLPVETGNGNIGDMTTPYVNPYFPDLRKPYTMNLQLDGVSEYINNMESPARETQETLTTSRVGSILRKAVVNTGRNEDFEDEPSTCHLIRPRVPENRKTVSSTPVLVRDVNRSMRYMPMDESFADQNQEHEDLNRRYAMNPRFLLSVSNMDPQRAADLQETIMKLGGTIEREFNKDVTHLIASNMQRAPKVLCSIAAGKWCLTPDYVTKSAEVGRWLDEKSFEWTREKLLACSKKNESLKERDSRKVSENLAAVCGLWRQRVAEMPVTFSVSMENRQNGAFSDWRCVIHLDDKRAGVFSSILEAGGAIVHSISEYVEVSTLKPNIVLASKEFPWNPQSAVLLKRDNIPIYVFDILYDFLIDRDNLNRTKFWHNVYMKA	not soluble
